According to the supplement of paper PMC7877785:
± gives the uncertainty stated by the source.

Experiment: self-splicing fitness, log relative to wild type (ln ratio); higher = more splicing; Tetrahymena group I intron in knt gene, E. coli kanamycin selection, DiMSum; sequences stand for … in CUCUCU…GGAGGGAAAAGUUAUCAGGCAUGCACCUGGUAGCUAGUCUUUAAACCAAUAGAUUGCAUCGGUUUAAAAGGCAAGACCGUCAAAUUGCGGGAAAGGGGUCAACAGCCGUUCAGUACCAAGUCUCAGGGGAAACUUUGAGAUGGCCUUGCAAAGGGUAUGGUAAUAAGCUGACGGACAUGGUCCUAACCACGCAGCCAAGUCCUAAGUCAACAGAUCUUCUGUUGAUAUGGAUGCAGUUCACAGACUAAAUGUCGGUCGGGGAAGAUGUAUUCUUCUCAUAAGAUAUAGUCGGACCUCUCCUUAAUGGGAGCUAGCGGAUGAAGUGAUGCAACACUGGAGCCGCUGGGAACUAAUUUGUAUGCGAAAGUAUAUUGAUUAGUUUUGGAGUACUCGUGGUCG
Method in brief: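 Library with all eight P1ex-region intron nucleotides randomised, intron inside the knt kanamycin-resistance gene on pET-22b(+), in E. coli BL21(DE3). Cells grew overnight at 37°C or 30°C on LB agar with or without 25 μg/mL kanamycin (plus 100 μg/mL carbenicillin, 50 μM IPTG, 0.2% rhamnose), in six replicate transformations. Pooled colonies were amplicon-sequenced on Illumina HiSeq 2500. DiMSum fitness is the error-weighted combination of wild-type-normalised replicate fold changes, kanamycin versus none.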

Sequence	self-splicing fitness (ln) (30 °C)	self-splicing fitness (ln) (37 °C)
UCAAAGCAAUAUUACGGGAA	-1.5 ± 0.15	-0.928 ± 0.16
ACCCAGCAAUAUUACGGGGC	-4.5 ± 0.19	-2.73 ± 0.14
UGUAAGCAAUAUUACGUCAC	-2.9 ± 0.19	-2.28 ± 0.25
GGAGAGCAAUAUUACGGGGA	-3.31 ± 0.49	
GUGUAGCAAUAUUACGAUCA	-0.818 ± 0.13	-0.543 ± 0.14
UGUAAGCAAUAUUACGAGUU	-2.78 ± 0.13	-2.69 ± 0.23
AUAGAGCAAUAUUACGAUCU	-0.131 ± 0.12	-0.042 ± 0.17
AAGGAGCAAUAUUACGUAUC		-2.8 ± 0.44
CCGGAGCAAUAUUACGUCAC	-3.61 ± 0.34	-2.71 ± 0.38
UGUCAGCAAUAUUACGUGGC	-4.53 ± 0.31	-3.13 ± 0.31
AGUCAGCAAUAUUACGUUCC	-1.13 ± 0.1	-0.187 ± 0.12
UUCCAGCAAUAUUACGCAUA	-0.568 ± 0.093	0.161 ± 0.096
UCAAAGCAAUAUUACGUGAC	-3.36 ± 0.12	-2.15 ± 0.16
AAGCAGCAAUAUUACGUAAC	-2.67 ± 0.11	-1.94 ± 0.14
GACCAGCAAUAUUACGACCA	-0.124 ± 0.17	-0.054 ± 0.15
CCCGAGCAAUAUUACGAAAC		-0.43 ± 0.4
AAGCAGCAAUAUUACGUUGG	-3.77 ± 0.17	-1.45 ± 0.11
UCCUAGCAAUAUUACGCACG	-3.34 ± 0.37	-1.87 ± 0.47
AGUUAGCAAUAUUACGAGCG	-0.12 ± 0.1	0.237 ± 0.11
AAACAGCAAUAUUACGAAUG	-2.81 ± 0.13	-1.91 ± 0.15
UAUUAGCAAUAUUACGGGGA	-2.39 ± 0.22	-0.989 ± 0.18
GUCCAGCAAUAUUACGUCGC	-0.994 ± 0.096	0.0208 ± 0.12
CGGAAGCAAUAUUACGCUCG	-3.42 ± 0.21	-1.97 ± 0.23
GUGAAGCAAUAUUACGAGCU	-1.12 ± 0.14	-1.19 ± 0.21
GUCCAGCAAUAUUACGCUUA	-0.882 ± 0.067	-0.314 ± 0.07
AUAAAGCAAUAUUACGUAGA	-2.36 ± 0.11	-0.832 ± 0.12

Sequence	self-splicing fitness (ln) (30 °C)	self-splicing fitness (ln) (37 °C)
ACCAAGCAAUAUUACGUUUG	-4.33 ± 0.16	-2.43 ± 0.14
UAAUAGCAAUAUUACGUCUG	-0.694 ± 0.075	-0.276 ± 0.089
UAACAGCAAUAUUACGGCUA	0.184 ± 0.052	-0.0982 ± 0.067
GUUGAGCAAUAUUACGAUUA	-1.94 ± 0.21	-1.23 ± 0.22
UUUAAGCAAUAUUACGCGCU	-1.15 ± 0.18	-0.609 ± 0.2
CGCCAGCAAUAUUACGCCUG	-1.21 ± 0.1	-0.608 ± 0.096
CGGAAGCAAUAUUACGGUGA	-1.64 ± 0.16	-2.07 ± 0.22
CAGAAGCAAUAUUACGUGCG	-0.578 ± 0.07	0.0457 ± 0.099
AACGAGCAAUAUUACGGGAU	-4.34 ± 0.19	-3.33 ± 0.23
GGCGAGCAAUAUUACGUCCA	-1.97 ± 0.14	-1.02 ± 0.12
AUUAAGCAAUAUUACGGGCU	-1.31 ± 0.13	-1.47 ± 0.17
ACUAAGCAAUAUUACGAUUA	-0.928 ± 0.12	-0.502 ± 0.1
AAUUAGCAAUAUUACGAGUA	-1.86 ± 0.24	-1.16 ± 0.18
UGUAAGCAAUAUUACGAAGA		-0.905 ± 0.37
CUCGAGCAAUAUUACGUACC	-2.32 ± 0.26	-0.911 ± 0.39
CCAUAGCAAUAUUACGUGUA	-4.27 ± 0.25	-2.71 ± 0.22
ACACAGCAAUAUUACGCGCA	-0.103 ± 0.064	0.225 ± 0.079
GGUAAGCAAUAUUACGCAUA	-1.19 ± 0.15	0.0315 ± 0.17
CCAUAGCAAUAUUACGCUAU		-3.35 ± 0.37
UGUCAGCAAUAUUACGAUUU	-0.0817 ± 0.061	0.461 ± 0.082
AAAUAGCAAUAUUACGGUGC	-4.05 ± 0.43	-1.81 ± 0.31
AGGGAGCAAUAUUACGUACC	-2.86 ± 0.33	-1.52 ± 0.29
AUGGAGCAAUAUUACGACGG		1.8 ± 0.38
UCUAAGCAAUAUUACGAAUA		-1.52 ± 0.32
GAUGAGCAAUAUUACGUCUC	-2.96 ± 0.23	-1.5 ± 0.41
AGUCAGCAAUAUUACGCAAA	-1.62 ± 0.11	-1.01 ± 0.15

Sequence	self-splicing fitness (ln) (30 °C)	self-splicing fitness (ln) (37 °C)
CUCAAGCAAUAUUACGGAAU	-3.95 ± 0.26	-2.67 ± 0.22
UGCCAGCAAUAUUACGGAGC	-3.73 ± 0.4	-3.1 ± 0.35
UUCAAGCAAUAUUACGUACG	-1.19 ± 0.13	-0.699 ± 0.21
AUCCAGCAAUAUUACGCGAU	-1.86 ± 0.15	-2.42 ± 0.25
UACUAGCAAUAUUACGUAUG	-3.59 ± 0.26	-1.8 ± 0.23
UACGAGCAAUAUUACGGGUG	-1.88 ± 0.074	-0.725 ± 0.087
GCAGAGCAAUAUUACGCCGC	-2.91 ± 0.38	
CCUGAGCAAUAUUACGACGG	-3.06 ± 0.25	-2.59 ± 0.48
AUUUAGCAAUAUUACGAACG	-0.287 ± 0.16	-0.464 ± 0.29
GUCAAGCAAUAUUACGUCCG		-3.83 ± 0.39
AGGCAGCAAUAUUACGACUC	-1.65 ± 0.14	-1.01 ± 0.19
AAUAAGCAAUAUUACGGUGC	-3 ± 0.15	-2.26 ± 0.23
GCUCAGCAAUAUUACGAUGA	-2.09 ± 0.2	-2.26 ± 0.31
AGGCAGCAAUAUUACGUUAC	-3.46 ± 0.2	-2.55 ± 0.31
AAAAAGCAAUAUUACGCGCC	-0.44 ± 0.095	-0.59 ± 0.13
CUGCAGCAAUAUUACGUUCG	-0.733 ± 0.074	-0.62 ± 0.095
CCUGAGCAAUAUUACGUGAA	-4.54 ± 0.34	-2.83 ± 0.21
GAGGAGCAAUAUUACGCCUA	-1.68 ± 0.27	-0.955 ± 0.16
UGGGAGCAAUAUUACGUUGC	-3.43 ± 0.4	-1.53 ± 0.23
ACGCAGCAAUAUUACGCCUU	-0.484 ± 0.082	0.1 ± 0.095
CUCAAGCAAUAUUACGCGGA	-3.12 ± 0.25	-4.56 ± 0.31
UAGUAGCAAUAUUACGUACA	-1.05 ± 0.064	-0.269 ± 0.081
AAUGAGCAAUAUUACGGACC		-1.08 ± 0.44
CCUCAGCAAUAUUACGCGUG	-1.85 ± 0.081	-0.545 ± 0.072
CACAAGCAAUAUUACGGAUG	-2.59 ± 0.095	-0.904 ± 0.087
ACUGAGCAAUAUUACGCUGC		-1.98 ± 0.33
